Legend:
[1] = target: T1, Permanent N-terminal CNP-38 PEG 5 kDa conjugate 15e (not fully specified)
T1 chain: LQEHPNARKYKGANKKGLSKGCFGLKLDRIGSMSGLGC

[2] = target: T2, Permanent N-terminal CNP-34 PEG 5 kDa conjugate 14e (not fully specified)
T2 chain: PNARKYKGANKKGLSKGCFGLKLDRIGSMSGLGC

[3] = target: T3, Permanent Lys26 CNP-38 PEG4x10 kDa conjugate 12g (not fully specified)
T3 chain: T1 chain

Measured: half life norm. [h] (in vitro NEP digest)

B1: recombinant human Neutral Endopeptidase (NEP) (protein)
chain: YDDGICKSSDCIKSAARLIQNMDATTEPCTDFFKYACGGWLKRNVIPETSSRYGNFDILRDELEVVLKDVLQEPKTEDIVAVQKAKALYRSCINESAIDSRGGEPLLKLLPDIYGWPVATENWEQKYGASWTAEKAIAQLNSKYGKKVLINLFVGTDDKNSVNHVIHIDQPRLGLPSRDYYECTGIYKEACTAYVDFMISVARLIRQEERLPIDENQLALEMNKVMELEKEIANATAKPEDRNDPMLLYNKMTLAQIQNNFSLEINGKPFSWLNFTNEIMSTVNISITNEEDVVVYAPEYLTKLKPILTKYSARDLQNLMSWRFIMDLVSSLSRTYKESRNAFRKALYGTTSETATWRRCANYVNGNMENAVGRLYVEAAFAGESKHVVEDLIAQIREVFIQTLDDLTWMDAETKKRAEEKALAIKERIGYPDDIVSNDNKLNNEYLELNYKEDEYFENIIQNLKFSQSKQLKKLREKVDKDEWISGAAVVNAFYSSGRNQIVFPAGILQPPFFSAQQSNSLNYGGIGMVIGHEITHGFDDNGRNFNKDGDLVDWWTQQSASNFKEQSQCMVYQYGNFSWDLAGGQHLNGINTLGENIADNGGLGQAYRAYQNYIKKNGEEKLLPGLDLNHKQLFFLNFAQVWCGTYRPEYAVNSIKTDVHSPGNFRIIGTLQNSAEFSEAFHCRKNSYMNPEKKCRVW
Almost no proteolysis after 4 days.: all assays above
